Data on one substance can be found in patent US20210069289.

The data set addresses human octamer-binding transcription factor 4 (OCT4), endogenous in NCCIT and NTERA-2 cells (UniProt Q01860).
Chain of UniProt Q01860 (Q01860 whole entry, looked up): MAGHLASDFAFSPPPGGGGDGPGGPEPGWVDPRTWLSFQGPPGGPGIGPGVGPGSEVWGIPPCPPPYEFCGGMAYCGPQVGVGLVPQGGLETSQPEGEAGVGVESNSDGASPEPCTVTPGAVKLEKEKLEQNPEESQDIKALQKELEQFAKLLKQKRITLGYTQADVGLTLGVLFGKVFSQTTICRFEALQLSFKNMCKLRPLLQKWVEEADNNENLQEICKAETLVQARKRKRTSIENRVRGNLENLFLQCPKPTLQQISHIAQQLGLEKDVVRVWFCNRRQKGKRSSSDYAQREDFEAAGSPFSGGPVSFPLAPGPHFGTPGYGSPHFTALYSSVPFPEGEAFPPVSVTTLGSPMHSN

For “protein phosphatase 1 (PP1), endogenous in NCCIT and NTERA-2 cells”, the “phosphorylated OCT4 after doxycycline-dependent shRNA suppression of PP1 (western blotting and immunofluorescence staining)” value is recorded as “when the expression of PP1 was suppressed using doxycycline, the phosphorylated OCT4 was increased”; the “phosphorylation of OCT4 after okadaic acid treatment (western blotting and immunofluorescence staining)” value is on record as “when PP1 was inhibited, the phosphorylation of OCT4 was increased”.
